Reference: paper PMC8618245, “Mechanisms of CP190 Interaction with Architectural Proteins in Drosophila Melanogaster” (International Journal of Molecular Sciences, 2021)

T1: 6×His-Thioredoxin-fused CP190 1–126 (BTB domain) (Drosophila melanogaster), Q24478
T1 chain: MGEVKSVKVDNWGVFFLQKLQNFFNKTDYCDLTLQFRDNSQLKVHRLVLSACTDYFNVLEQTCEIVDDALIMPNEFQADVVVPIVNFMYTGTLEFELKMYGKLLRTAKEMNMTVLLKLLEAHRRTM

B1: 6×His-Thioredoxin-fused CP190 1–126 L118A (domain or fragment, Drosophila melanogaster, UniProt Q24478 1-126, looked up)
chain: MGEVKSVKVDNWGVFFLQKLQNFFNKTDYCDLTLQFRDNSQLKVHRLVLSACTDYFNVLEQTCEIVDDALIMPNEFQADVVVPIVNFMYTGTLEFELKMYGKLLRTAKEMNMTVLLKALEAHRRTM
notes: CP190, Drosophila melanogaster, residues 1–126 (BTB domain); also called BTB^L118A; source: E. coli BL21, co-expressed with the GST fusion, in lysate (pull-down); bacterial expression (cross-linking)
B2: 6×His-Thioredoxin-fused CP190 1–126 F15A (domain or fragment, Drosophila melanogaster, UniProt Q24478 1-126, looked up)
chain: MGEVKSVKVDNWGVAFLQKLQNFFNKTDYCDLTLQFRDNSQLKVHRLVLSACTDYFNVLEQTCEIVDDALIMPNEFQADVVVPIVNFMYTGTLEFELKMYGKLLRTAKEMNMTVLLKLLEAHRRTM
notes: CP190, Drosophila melanogaster, residues 1–126 (BTB domain); source: E. coli BL21, co-expressed with the GST fusion, in lysate (pull-down); bacterial expression (cross-linking)
B3: 6×His-Thioredoxin-fused CP190 1–126 V114N (domain or fragment, Drosophila melanogaster, UniProt Q24478 1-126, looked up)
chain: MGEVKSVKVDNWGVFFLQKLQNFFNKTDYCDLTLQFRDNSQLKVHRLVLSACTDYFNVLEQTCEIVDDALIMPNEFQADVVVPIVNFMYTGTLEFELKMYGKLLRTAKEMNMTNLLKLLEAHRRTM
notes: as for B2
B4: 6×His-Thioredoxin-fused CP190 1–126 K117S (domain or fragment, Drosophila melanogaster, UniProt Q24478 1-126, looked up)
chain: MGEVKSVKVDNWGVFFLQKLQNFFNKTDYCDLTLQFRDNSQLKVHRLVLSACTDYFNVLEQTCEIVDDALIMPNEFQADVVVPIVNFMYTGTLEFELKMYGKLLRTAKEMNMTVLLSLLEAHRRTM
notes: as for B2
B5: 6×His-Thioredoxin-fused CP190 1–126 V7A (domain or fragment, Drosophila melanogaster, UniProt Q24478 1-126, looked up)
chain: MGEVKSAKVDNWGVFFLQKLQNFFNKTDYCDLTLQFRDNSQLKVHRLVLSACTDYFNVLEQTCEIVDDALIMPNEFQADVVVPIVNFMYTGTLEFELKMYGKLLRTAKEMNMTVLLKLLEAHRRTM
notes: CP190, Drosophila melanogaster, residues 1–126 (BTB domain); also called BTB^V7A; source: E. coli BL21, co-expressed with the GST fusion, in lysate (pull-down); bacterial expression (cross-linking)
B6: 6×His-Thioredoxin-fused CP190 1–126 V114A (domain or fragment, Drosophila melanogaster, UniProt Q24478 1-126, looked up)
chain: MGEVKSVKVDNWGVFFLQKLQNFFNKTDYCDLTLQFRDNSQLKVHRLVLSACTDYFNVLEQTCEIVDDALIMPNEFQADVVVPIVNFMYTGTLEFELKMYGKLLRTAKEMNMTALLKLLEAHRRTM
notes: as for B2
B7: 6×His-Thioredoxin-fused CP190 1–126 K19A (domain or fragment, Drosophila melanogaster, UniProt Q24478 1-126, looked up)
chain: MGEVKSVKVDNWGVFFLQALQNFFNKTDYCDLTLQFRDNSQLKVHRLVLSACTDYFNVLEQTCEIVDDALIMPNEFQADVVVPIVNFMYTGTLEFELKMYGKLLRTAKEMNMTVLLKLLEAHRRTM
notes: as for B2
B8: 6×His-Thioredoxin-fused CP190 1–126 (BTB domain), Q24478 1-126 (domain or fragment)
chain: MGEVKSVKVDNWGVFFLQKLQNFFNKTDYCDLTLQFRDNSQLKVHRLVLSACTDYFNVLEQTCEIVDDALIMPNEFQADVVVPIVNFMYTGTLEFELKMYGKLLRTAKEMNMTVLLKLLEAHRRTM

Molecular target: the molecule itself
Experiment: cross-linking; glutaraldehyde, thioredoxin-fused BTB domains at 5 μM, 10 min at room temperature, 20 mM HEPES pH 7.7, 150 mM NaCl, 20 mM imidazole, 1 mM β-mercaptoethanol; SDS-PAGE, silver staining
Settings: not given

Stoichiometry N, 2:
B1
B2
B3
B4
B5
B6
B7

Molecular target: T1, 6×His-Thioredoxin-fused CP190 1–126 …
Experiment: as above
Settings: remark: other sources report otherwise

Stoichiometry N, 2:
B8
